In the supplement of paper PMC12636428:

Tested on: Saccharomyces cerevisiae
Experiment: transcriptional activation domain activity (GFP:mCherry ratio, weighted mean of sorted bins, harmonized to initial dataset scale) (arbitrary fluorescence ratio units); higher = stronger transcriptional activation
Details: beta-estradiol 1 µM; induction time 4 h
Outline: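 In diploid yeast carrying a GFP reporter, barcoded protein tiles fused to an estradiol-inducible synthetic transcription factor were integrated at the URA3 locus. Cultures diluted 1:5 into SC with 1 uM beta-estradiol were kept at 30 °C for 4 hours, then sorted by GFP:mCherry ratio into 8 bins before barcode sequencing. Tiles with under 50 reads were excluded. The activation activity reported here is the read-weighted mean of bin median fluorescence, averaged across barcodes and linearly rescaled to the initial dataset.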

Row | Sequence | transcriptional activation domain activity
1 | KSKKRRRDDGSSDTADSDGNRGRSTGKKRQRSRRGSDDNDSEADARKRSRKRR | 23600
2 | KSKKRSRVDEEDEEEYGASSSKAKAKKDKEKPAKKAAAKGKEKAAKGKASAKG | 26200
3 | KSKKTEAEAEEEEVTEEVKPEKKEKKEKKEKKEKKRKRDAEEDAAETKPAEKA | 17600
4 | KSKQKERERKRARAKANEKAKAEARKRKTKDGEKKEKRKQKEREKAKGKGKER | 55000
5 | KSKSSRSSRRREGEEDDDRRRRRHRHRSRSHSRGRDGDNDDPKEKRRSRRHDD | 38400
6 | KSKSSRSSRRREGEEDDDRRRRRHRHRSRSRSRSRGRGGGSDDGSKEQRRSSR | 40100
7 | KSNDSSAEKDTRSMVFCETEKVSYTGANFGEDAARDVHCKYLVGVYSKSQKQL | 37900
8 | KSNGTEGAGAEGSKGGEGSTGEGSKGEGSSGEGAKGGEGSKGEGAGAEGSKGG | 36300
9 | KSPEKEATKDGDGKPEGTTGTGRGRGRGRGRGGGRGRGRGRGGAVAEKGSYKA | < 6570
10 | KSPHMSAVESKPKEAKTVVEPKADKAAEVKKEEPKKEVVAAPEPVAAKPIAQI | 35600
11 | KSPVKRKPKAEGASADGSPKKRKSKGEAADADGTPKKRGRKPKKAEPQPEIQG | 33700
12 | KSRKRAKKSPEESEVESKHRRRRSRKAVEDENDENSHCKRTKKVAGAESEKAV | 19700
13 | KSSEAAPAEENKPSPEKNGKGKQGEDKGGNNGKENKGGDKGGGKGAQSKKGKK | 31600
14 | KSSKEKDTASVKRGSVESDDTPAAAAAATKGKQLSKDGDADDDSDESDEEKEQ | 33700
15 | KSTARDTSAEVSSTKKRARSKAKKGDSDVEEDSDRGRSKTAKKSRKSTGAKSS | 12800
16 | KSVLCDLVFTMFADLRDPSVSRRFATVDDLELWFSTTLIKALRHLVALFTEYY | 50400
17 | KSVLERILVRGAMGSERHMKHELKVFYAMRGKLSWFIKWVHVVLRWVFAKSVL | 48000
18 | KSVSRLHAKIEYDQEEDRFVLLVVGRNGAWVDGVWSASGTRACLGERSQIQIA | 42000
19 | KSVVLERKLAIGQCRHLFTVNDNWLVSVWNDFHVGIVVRNMVFFLCRLVFDFM | 42700
20 | KSWGKSLVGLMGRLKRQPICVLVKTDEINHLLHMILYVRENEETSCIKIVHFC | 37900
21 | KSWYFPSLSFFFFSFLFSFLSFAFLSFFLFFSFPFSLLLLYLFLLGLALTADG | 15600

Row | Sequence | transcriptional activation domain activity
22 | KSYVAILGYIMYPPTTRLVIHIRVWADALRALSSQAMLKTYLLTRGYQFRSIV | 58900
23 | KTDKSKDRKTKKKKSHKATGSERPSSSRGEEPEKDEEPEKKEKRRKKRKEEKR | 17900
24 | KTGEDRGRGRGRGRGKRKGEGRGGEGKTGEEGEEEEEEKGERREREREREKKK | 23400
25 | KTHPQASAEADGEEDAEPEGQAKSRQPSRRRQSRGRGRRGGPQESDTESIARS | 19300
26 | KTIFFCGGRFLTSRALWAFCLSMFLFVMPSVLFLIFTCPWLWHHISPAVPIIF | 41300
27 | KTIGKQDPYCAARLGKEAKKTETDRRGGQTPRWDQELRFTVHDSPDYYQLKVS | 55000
28 | KTIWRDVKEGGECSVEEMCLSYYRSEGWKGYHSEGGILKTLFAYLFYDIMFLY | 65700
29 | KTKEGAAKNTKKSGERGKEKGLAGAKSKKSPINNSVKGKKSPSTKKTVKKAGK | 31600
30 | KTPAAANKAGGGGAGGKSAGGRGKTQRARGGRVKQATTQKQTATPKQQQTAAK | 24000
31 | KTQDESKPADGASTEQPAKKKRKRKQKRAQDGEGGEGAAAVGGGGGGEETQKA | 33200
32 | KTRGFQEGVSLTVYDELARWEKYAYGCNELIFHPMRYWPTRGPFTKLFIRFIF | 41600
33 | KTSNDLKYLFTFVEYHVFVSLIRRSLSQLDENKEKHEQMIKLYDDILKNIECI | 24800
34 | KTTGPDARISHTSVQRFASYLGLRVALDRLRLQLAAATTIRHFISRLSRVLVF | 50600
35 | KTVEEIWRISQGAVEGEEKGREREKAGLCVRACGASWHSQVLCAALVEVVGLS | 41700
36 | KVAAGANGETDGEAKTKKKSSKRVSRRRQPGEEDDEEEAEGAGEGAEKAKKNK | 20300
37 | KVAEPGSKVSLRAPVDPNAPAPKPKKGKDGKEIKEEPKMIEKVVDSIYLHVQT | 41000
38 | KVAYRNPAADSEGWRRWGNDEARHGTLGVEEMERRIEALRKAKVGGGMVKVGF | 35500
39 | KVDNGGKVDNSGKVDNGRKVDSRKIDDGRKVDDGRNVDNRGRVDEGGGVVKGG | 19500
40 | KVDNGRKVDNGGKVDGRKVDNGGKVDDGRSVNDRGRADKGGGVVKGGRLVEGG | 24900
41 | KVEIRERDARSVVKLRSGANVPVTESTHGLDGGTGQDVHILVAQTKSKKFNRH | 49800
42 | KVERGREVRKKAREEREKRGATGGGRGKGRGKGKGKGRDGERGKSAAEEGAGA | 10800

Row | Sequence | transcriptional activation domain activity
43 | KVGFVLIFLFALLVFTSIICSPIYVFSVPYSSICISLQVHRCCLFYGAVIWFV | 31300
44 | KVISLLYSNRESSYLEDTCPTENDYSDLLKGYINEIEKTLPPKAIIEQYLSHF | 51100
45 | KVKAEGEASDGGAPAPDAEGGAADDSAAGKKAARVRKPKAPRAPRPAGEDPVG | 34200
46 | KVKKEKKEKKHRRHHHRHRDGSDDERSHKRRRRDDDKRGHRSSRSEHRRRSDS | 29800
47 | KVKKKRRRSDSSDEDAIAALKAKRKKKKRADSDSDEEETSRKKSKSKRRRKAD | 42800
48 | KVNQRKENKNNKNDEDNDDDNDDEEGKEKDKEEEKKDKKKKNKKCKHKKNKNK | 21700
49 | KVNTNNDVNENNDLWNSYLQSMDDTTGKNSGNYQQVDNDDNMSLLNLPILEET | 90400
50 | KVRAKEIVILPSEEDDNYKPLDTSNATTSSSEPRVDVVQEGLFREALNENDGK | 32500
51 | KVSFLFGVWFFFSFEVLGFFDFFPSFLSFRRIFFIIFILYFIIYLYVVFFVSF | 73700
52 | KVVLLFAGWIIKIIVAKLMLAWSQSMRKVIVQRAQLVYRFGINGMVFYSIGCA | 60400
53 | KVVLTERLARGKAEIKDLQVCFECMSLVGMKINIFKGNGFMWTIACSVLFQKG | 52100
54 | KVVQQFCGCHSRAANGCSGDELLRQYDYDEEDTVSSNRRFANETCRVAVLTVR | 65900
55 | KWHSTMQSAAARGTRVLHDKRRSRVKREGGEGGGGKEERRRQRRRTCATCTRL | 29700
56 | KWIIPTPFASHAFNPCDGFLQSLPYHIYVYMIPMHKYLYLLMFVLVNFWTVMI | 49700
57 | KWIVPTPFASHAFHCLDGYFQSIPYHLYVYLVPMQKWLYISMFLFVNVWTVMI | 48400
58 | KWKEKRSRNDEADGERGAERKPRKRSRSPRRRKEPEAAPERKQQEKPASAAPA | 45600
59 | KWLCYVELMNILTLGWPLSNIHFYICKYCAGWFRKYNYLFGTGINGGAQIFVL | 66700
60 | KWLGECLNAAIAVFLYIYFLLHVGLLHLSHFFFFFFDLFSPVYTLSLQMVLYL | 53800
61 | KWVAHSVVEKCVLLLILWHRYAMDVVRECSEAWEKLITGKTAPNGISTTNLTV | 31500
62 | KWVLSILEFFVVHGFFSVTRKNAKSSLQAIHHVPNPKFSDTMKQRCRDRLFTC | 51700
63 | KYAYGCDELIFNPLVHWWKMGPINKQLRTFVWSDAPVHYKVTMLSYMFSYYGI | 50100

Row | Sequence | transcriptional activation domain activity
64 | KYEEQEDKDEEEEEKEEEEEEEEEEEEEEEGKRGEGKKATAKRRSKGSAYGGK | 17300
65 | KYLFQSQRFGGHFFQIQVVLRDIEKYLEEVHQFMLQVNIMVLGFHAMLDKAFQ | 55900
66 | KYLIQSLILYPVPLLQVIITYFVQIKRYDISTVVGCSLLNVYYPNWMFLVFFL | 58800
67 | KYLSTCLKSCNTQLLDGILNTFARIFLSLGHLVEIMPELGTSILFQTYLFALQ | 52900
68 | KYNLALILAGFFRFIPWISVLLLLLLSLSPRARSLFPWPISSILLLYTLADTI | 39400
69 | LACFLGLTFTLFLLIYFFFLSIFSFIILSLLCVLHHSACLPCLNFHMLPFCPF | 61100
70 | LACIVVCVIVYVVLTLLPLFYRDCPYLTPMSGPLWRFLQAFQFVSIVSFRRIY | 41900
71 | LADNKFSYLPPTLEELMEEQDCNNGRSFKNFMFSNDTGIDGSAGTDDDYTKVL | 60000
72 | LADYMCDYSGSLIGKHFKTLAQIMPFAIQDLVPSSVQAAWLLIGRLVVLLWVT | 52900
73 | LAEEEGEEEEGESVTPTDDKIIVKLRGKDNTDTSLRVKQTTLIRSVISSYKKI | 64100
74 | LAEGAATEEAKTEEGSAPAGETAALAEAAATEEAAATEEVKEEKKEEAATTKA | 29900
75 | LAELVPKLDDSTVQYAYVRQEYANDSESTRVKFALIIWIGQSTKVMRKARVSI | 52800
76 | LAESQRQNQQGGRGRGGRSLFDRTERGRGNRRGGHQGNGHHARQDEAANGGAE | 17600
77 | LAEVILLPDLCGFCCFSMRFVVLLDLIGTLTLPVTCLYLIYLIYVMASGNGPF | 50300
78 | LAGGLGFFLWLLPTWWVLFACVGFLVWLFWSPVVLVASVGFVAWKLGYWWVLW | 24100
79 | LAHCGCSQSLLLLLFSFPYRYYIILFHYWVLRGGLTIPIYRVLCGFFLPSFVL | 62200
80 | LAHCRAVVIRRVDGTAFEPVLRQAESLAVARTWLDRLFLCAYWMLTWFLADIV | 56400
81 | LAHFVIHRGLIISIMQAVFSAIFYFAPIALYQGMLLVGYTTVYTMWPLFSLVL | 58500
82 | LAILMDGLNRILLTHKDDIGIVARVMLAYMTAATRFKRLFISGGGYMLFMPAV | 59800
83 | LAKARCGCCFQIGSLVELIKLCLLIMLLVVIYFVTVQALIAVLVSSKLCILVP | 43800
